According to patent US20150344570A1 (published 2015):

T1: FcgRIIb (human, UniProt P31994 43-217)
T1 construct: extracellular domain; also called FcγRIIb; CD32B
T1 sequence (looked up): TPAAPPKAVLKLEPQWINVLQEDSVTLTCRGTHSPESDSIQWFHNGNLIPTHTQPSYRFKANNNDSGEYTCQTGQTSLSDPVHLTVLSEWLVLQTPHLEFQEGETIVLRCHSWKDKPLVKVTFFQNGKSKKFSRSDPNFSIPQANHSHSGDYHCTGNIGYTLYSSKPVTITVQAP

T2: FcgRIIa R (human, UniProt P12318 34-217)
T2 construct: extracellular domain; also called FcγRIIa R; FcγRIIa type R
T2 sequence (looked up): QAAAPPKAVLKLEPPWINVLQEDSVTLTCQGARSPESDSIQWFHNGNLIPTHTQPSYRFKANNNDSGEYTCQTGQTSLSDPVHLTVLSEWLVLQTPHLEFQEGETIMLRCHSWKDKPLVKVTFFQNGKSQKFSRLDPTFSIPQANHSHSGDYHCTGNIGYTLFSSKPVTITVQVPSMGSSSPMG

T3: FcgRIIa H (human, UniProt P12318 34-217)
T3 construct: extracellular domain; also called FcγRIIa H; FcγRIIa type H
T3 sequence (looked up): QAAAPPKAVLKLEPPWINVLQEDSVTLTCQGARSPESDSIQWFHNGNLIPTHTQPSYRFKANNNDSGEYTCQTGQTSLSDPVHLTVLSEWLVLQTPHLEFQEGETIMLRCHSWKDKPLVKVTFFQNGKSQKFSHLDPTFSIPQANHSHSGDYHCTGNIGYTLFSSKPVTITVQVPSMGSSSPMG


Experiments:
Test in all cases: SPR (Biacore); KD of GpH7-Kn033/GpH7-Hl033/GpL16-k0 for this FcγR divided by KD of this antibody
[1] = molecular target: T1, FcgRIIb
Experimental: (§1) These antibodies were assessed for the binding activity to each FcγR according to the method described in Reference Example 2.
(§2) Analysis of interaction between objective antibody and the FcγR was carried out using Biacore T100 (GE Healthcare). HBS-EP+ (GE Healthcare) was used as the running buffer, and the measurement temperature was set to 25° C. Chips produced by immobilizing the antigen peptide by the amine coupling method to a Series S Sencor Chip CM5 (GE Healthcare), or alternatively, chips produced by allowing preliminarily biotinylated antigen peptides to interact with and immobilize onto a Series S Sensor Chip SA (certified) (GE Healthcare) were used. Antibodies of interest were captured onto an antigen peptide-immobilized chip, and allowed to interact to each FcγR diluted with running buffer. To regenerate and repeatedly use the chip, the antibodies captured on the chip were washed off by reacting 10 mM glycine-HCl, pH 1.5.

[2] = molecular target: T4, FcgRIIIa F (human, UniProt P08637 17-208)
T4 construct: extracellular domain; also called FcγRIIIa F; FcγRIIIaF
Experimental: as §1, §2

[3] = molecular target: T5, FcgRIIIa V (human, UniProt P08637 17-208)
T5 construct: extracellular domain; also called FcγRIIIa V; FcγRIIIaV
Experimental: as §1, §2

[4] = molecular target: T2, FcgRIIa R
Experimental: as §1, §2

[5] = molecular target: T3, FcgRIIa H
Experimental: as §1, §2

[6] = molecular target: T6, FcgRIa (human, UniProt P12314 16-292)
T6 construct: extracellular domain; also called FcγRIa; FcγRI
Experimental: as §1, §2

T4 sequence (P08637 17-208): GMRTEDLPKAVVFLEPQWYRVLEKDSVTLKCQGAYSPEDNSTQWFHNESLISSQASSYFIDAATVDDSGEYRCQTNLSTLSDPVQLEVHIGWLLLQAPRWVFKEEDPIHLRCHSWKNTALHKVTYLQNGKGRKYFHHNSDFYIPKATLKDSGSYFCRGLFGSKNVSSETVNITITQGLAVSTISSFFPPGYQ
T6 sequence (P12314 16-292): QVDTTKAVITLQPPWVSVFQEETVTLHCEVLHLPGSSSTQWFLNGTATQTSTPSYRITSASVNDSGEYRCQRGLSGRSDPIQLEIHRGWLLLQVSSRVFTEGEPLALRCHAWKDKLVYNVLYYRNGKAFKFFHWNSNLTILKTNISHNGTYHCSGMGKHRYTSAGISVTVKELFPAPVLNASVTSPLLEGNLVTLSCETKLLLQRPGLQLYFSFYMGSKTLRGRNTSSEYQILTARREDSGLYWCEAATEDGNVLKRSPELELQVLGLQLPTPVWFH
T5 sequence (P08637 17-208 F176V limits assumed): as the sequence (P08637 17-208) above, with F160V counted along it

Row | KD ratio [1] [fold] | KD ratio [2] [fold] | KD ratio [3] [fold] | KD ratio [4] [fold] | KD ratio [5] [fold] | KD ratio [6] [fold] | Binder
1 | 8.2 | 381 | 182 | 3 | 1.2 | 24 | GpH7-Kn032/GpH7-Hl032/GpL16-k0 (antibody, human IgG1, kappa, also called Kn032/Hl032) heavy 1: QVQLVQSGAEVKKPGASVTVSCKASGYTFTDYEMHWIRQPPGEGLEWIGAIDPKTGDTAYSESFQDRVTLTADKSTSTAYMELSSLTSEDTAVYYCTRFYSYTYWGQGTLVTVSSASTKGPSVFPLAPSSKSTSGGTAALGCLVKDYFPEPVTVSWNSGALTSGVHTFPAVLQSSGLYSLSSVVTVPSSSLGTQTYICNVNHKPSNTKVDKKVEPKSCDKTHTCPPCPAPELLGGPDVFLFPPKPKDTLMISRTPEVTCVVVDVSHEDPEVKFNWYVDGVEVHNAKTKPREEQYNSTYRVVSVLTVLHQDWLNGKEYKCKVSNKALPLPEEKTISKAKGQPREPQVCTLPPSRDELTKNQVSLWCLVKGFYPSDIAVEWESNGQPENNYKTTPPVLDSDGSFFLYSKLTVDKSRWQQGNVFSCSVMHEALHNHYTQKSLSLSP heavy 2: QVQLVQSGAEVKKPGASVTVSCKASGYTFTDYEMHWIRQPPGEGLEWIGAIDPKTGDTAYSESFQDRVTLTADKSTSTAYMELSSLTSEDTAVYYCTRFYSYTYWGQGTLVTVSSASTKGPSVFPLAPSSKSTSGGTAALGCLVKDYFPEPVTVSWNSGALTSGVHTFPAVLQSSGLYSLSSVVTVPSSSLGTQTYICNVNHKPSNTKVDKKVEPKSCDKTHTCPPCPAPELLGGPDVFLFPPKPKDTLMISRTPEVTCVVVDVSHEDPEVKFNWYVDGVEVHNAKTKPREEQYNSTYRVVSVLTVLHQDWLNGKEYKCKVSNKALPLPEEKTISKAKGQPREPQVYTLPPSRCELTKNQVSLSCAVKGFYPSDIAVEWESNGQPENNYKTTPPVLDSDGSFFLVSKLTVDKSRWQQGNVFSCSVMHEALHNHYTQKSLSLSP light: DIVMTQSPLSLPVTPGEPASISCQASESLVHSNRNTYLHWYLQKPGQSPQLLIYKVSNRFSGVPDRFSGSGSGTDFTLKISRVEAEDVGVYYCSQNTHVPPTFGQGTKVEIERTVAAPSVFIFPPSDEQLKSGTASVVCLLNNFYPREAKVQWKVDNALQSGNSQESVTEQDSKDSTYSLSSTLTLSKADYEKHKVYACEVTHQGLSSPVTKSFNRGEC
2 | 16 | 161 | 84 | 43 | 22 | 6 | GpH7-Kn037/GpH7-Hl036/GpL16-k0 (antibody, human IgG1, kappa, also called Kn037/Hl036) heavy 1: QVQLVQSGAEVKKPGASVTVSCKASGYTFTDYEMHWIRQPPGEGLEWIGAIDPKTGDTAYSESFQDRVTLTADKSTSTAYMELSSLTSEDTAVYYCTRFYSYTYWGQGTLVTVSSASTKGPSVFPLAPSSKSTSGGTAALGCLVKDYFPEPVTVSWNSGALTSGVHTFPAVLQSSGLYSLSSVVTVPSSSLGTQTYICNVNHKPSNTKVDKKVEPKSCDKTHTCPPCPAPELLAGPDVFLFPPKPKDTLMISRTPEVTCVVVDVSHEDPEVKFNWYVDGVEVHNAKTKPREEQYNSTYRVVSVLTVLHQDWLNGKEYKCKVSNKALPAPEEKTISKAKGQPREPQVCTLPPSRDELTKNQVSLWCLVKGFYPSDIAVEWESNGQPENNYKTTPPVLDSDGSFFLYSKLTVDKSRWQQGNVFSCSVMHEALHNHYTQKSLSLSP heavy 2: QVQLVQSGAEVKKPGASVTVSCKASGYTFTDYEMHWIRQPPGEGLEWIGAIDPKTGDTAYSESFQDRVTLTADKSTSTAYMELSSLTSEDTAVYYCTRFYSYTYWGQGTLVTVSSASTKGPSVFPLAPSSKSTSGGTAALGCLVKDYFPEPVTVSWNSGALTSGVHTFPAVLQSSGLYSLSSVVTVPSSSLGTQTYICNVNHKPSNTKVDKKVEPKSCDKTHTCPPCPAPELLAGPDVFLFPPKPKDTLMISRTPEVTCVVVDVSHEDPEVKFNWYVDGVEVHNAKTKPREEQYNSTYRVVSVLTVLHQDWLNGKEYKCKVSNKALPAPEEKTISKAKGQPREPQVYTLPPSRCELTKNQVSLSCAVKGFYPSDIAVEWESNGQPENNYKTTPPVLDSDGSFFLVSKLTVDKSRWQQGNVFSCSVMHEALHNHYTQKSLSLSP light: DIVMTQSPLSLPVTPGEPASISCQASESLVHSNRNTYLHWYLQKPGQSPQLLIYKVSNRFSGVPDRFSGSGSGTDFTLKISRVEAEDVGVYYCSQNTHVPPTFGQGTKVEIERTVAAPSVFIFPPSDEQLKSGTASVVCLLNNFYPREAKVQWKVDNALQSGNSQESVTEQDSKDSTYSLSSTLTLSKADYEKHKVYACEVTHQGLSSPVTKSFNRGEC
3 | 15 | 985 | 300 | 56 | 21 | 3.7 | GpH7-Kn045/GpH7-Hl055/GpL16-k0 (antibody, human IgG1, kappa, Heterodimerized antibody: knob chain L234Y/L235Y/G236A/H268D/S298A, hole chain G236A/S239D/Q295L/A330M/I332E; also called Kn045/Hl055) heavy 1: QVQLVQSGAEVKKPGASVTVSCKASGYTFTDYEMHWIRQPPGEGLEWIGAIDPKTGDTAYSESFQDRVTLTADKSTSTAYMELSSLTSEDTAVYYCTRFYSYTYWGQGTLVTVSSASTKGPSVFPLAPSSKSTSGGTAALGCLVKDYFPEPVTVSWNSGALTSGVHTFPAVLQSSGLYSLSSVVTVPSSSLGTQTYICNVNHKPSNTKVDKKVEPKSCDKTHTCPPCPAPEYYAGPSVFLFPPKPKDTLMISRTPEVTCVVVDVSDEDPEVKFNWYVDGVEVHNAKTKPREEQYNATYRVVSVLTVLHQDWLNGKEYKCKVSNKALPAPIEKTISKAKGQPREPQVCTLPPSRDELTKNQVSLWCLVKGFYPSDIAVEWESNGQPENNYKTTPPVLDSDGSFFLYSKLTVDKSRWQQGNVFSCSVMHEALHNHYTQKSLSLSP heavy 2: QVQLVQSGAEVKKPGASVTVSCKASGYTFTDYEMHWIRQPPGEGLEWIGAIDPKTGDTAYSESFQDRVTLTADKSTSTAYMELSSLTSEDTAVYYCTRFYSYTYWGQGTLVTVSSASTKGPSVFPLAPSSKSTSGGTAALGCLVKDYFPEPVTVSWNSGALTSGVHTFPAVLQSSGLYSLSSVVTVPSSSLGTQTYICNVNHKPSNTKVDKKVEPKSCDKTHTCPPCPAPELLAGPDVFLFPPKPKDTLMISRTPEVTCVVVDVSHEDPEVKFNWYVDGVEVHNAKTKPREELYNSTYRVVSVLTVLHQDWLNGKEYKCKVSNKALPMPEEKTISKAKGQPREPQVYTLPPSRCELTKNQVSLSCAVKGFYPSDIAVEWESNGQPENNYKTTPPVLDSDGSFFLVSKLTVDKSRWQQGNVFSCSVMHEALHNHYTQKSLSLSP light: DIVMTQSPLSLPVTPGEPASISCQASESLVHSNRNTYLHWYLQKPGQSPQLLIYKVSNRFSGVPDRFSGSGSGTDFTLKISRVEAEDVGVYYCSQNTHVPPTFGQGTKVEIERTVAAPSVFIFPPSDEQLKSGTASVVCLLNNFYPREAKVQWKVDNALQSGNSQESVTEQDSKDSTYSLSSTLTLSKADYEKHKVYACEVTHQGLSSPVTKSFNRGEC
4 | 34 | 419 | 170 | 154 | 52 | 3.7 | GpH7-Kn045/GpH7-Hl048/GpL16-k0 (antibody, human IgG1, kappa, Heterodimerized antibody: knob chain L234Y/L235Y/G236A/H268D/S298A, hole chain G236A/S239D/A330K/I332E; also called Kn045/Hl048) heavy 1: QVQLVQSGAEVKKPGASVTVSCKASGYTFTDYEMHWIRQPPGEGLEWIGAIDPKTGDTAYSESFQDRVTLTADKSTSTAYMELSSLTSEDTAVYYCTRFYSYTYWGQGTLVTVSSASTKGPSVFPLAPSSKSTSGGTAALGCLVKDYFPEPVTVSWNSGALTSGVHTFPAVLQSSGLYSLSSVVTVPSSSLGTQTYICNVNHKPSNTKVDKKVEPKSCDKTHTCPPCPAPEYYAGPSVFLFPPKPKDTLMISRTPEVTCVVVDVSDEDPEVKFNWYVDGVEVHNAKTKPREEQYNATYRVVSVLTVLHQDWLNGKEYKCKVSNKALPAPIEKTISKAKGQPREPQVCTLPPSRDELTKNQVSLWCLVKGFYPSDIAVEWESNGQPENNYKTTPPVLDSDGSFFLYSKLTVDKSRWQQGNVFSCSVMHEALHNHYTQKSLSLSP heavy 2: QVQLVQSGAEVKKPGASVTVSCKASGYTFTDYEMHWIRQPPGEGLEWIGAIDPKTGDTAYSESFQDRVTLTADKSTSTAYMELSSLTSEDTAVYYCTRFYSYTYWGQGTLVTVSSASTKGPSVFPLAPSSKSTSGGTAALGCLVKDYFPEPVTVSWNSGALTSGVHTFPAVLQSSGLYSLSSVVTVPSSSLGTQTYICNVNHKPSNTKVDKKVEPKSCDKTHTCPPCPAPELLAGPDVFLFPPKPKDTLMISRTPEVTCVVVDVSHEDPEVKFNWYVDGVEVHNAKTKPREEQYNSTYRVVSVLTVLHQDWLNGKEYKCKVSNKALPKPEEKTISKAKGQPREPQVYTLPPSRCELTKNQVSLSCAVKGFYPSDIAVEWESNGQPENNYKTTPPVLDSDGSFFLVSKLTVDKSRWQQGNVFSCSVMHEALHNHYTQKSLSLSP light: DIVMTQSPLSLPVTPGEPASISCQASESLVHSNRNTYLHWYLQKPGQSPQLLIYKVSNRFSGVPDRFSGSGSGTDFTLKISRVEAEDVGVYYCSQNTHVPPTFGQGTKVEIERTVAAPSVFIFPPSDEQLKSGTASVVCLLNNFYPREAKVQWKVDNALQSGNSQESVTEQDSKDSTYSLSSTLTLSKADYEKHKVYACEVTHQGLSSPVTKSFNRGEC
